In article PMC8326586 one finds binding data, which are given here for six sequences.

This data set concerns T1, AbTetR (TetR class G) (Acinetobacter baumannii AYE), ORF:695ec09f.
T1 sequence: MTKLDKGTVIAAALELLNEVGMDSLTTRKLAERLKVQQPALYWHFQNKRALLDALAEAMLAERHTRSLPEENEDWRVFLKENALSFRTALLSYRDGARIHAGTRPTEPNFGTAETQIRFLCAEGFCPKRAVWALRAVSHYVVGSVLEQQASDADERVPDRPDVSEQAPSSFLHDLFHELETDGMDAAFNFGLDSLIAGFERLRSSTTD
As to the kind of experiment: EMSA.
As for “ATCAACGATAAGGAGATGGACATATAACTTATCGGTGATAAATTGTCAAGCACTGGCGAAGGAACGTGA (double strand) [70 bp tetR-tetA(G) fragment]”, the binding result is reported as “binds”.
Then “CGAATCAAGCAGGAACCATCCAAGATTGGCATAAAAGGTACATTCAACCTTTTCACTGCATCCCATTGGTGCACGTACTCGGTCTTGCAACTCGGA (double strand) [96 bp non-binding sequence]”, with “no binding”; and “CTGAAACTCCAGCGCCGCTCAATGGAGCGACTTTATCAACGATAAGGAGATGGACATATAACTTA (double strand) [65 bp tetR-tetA(G) fragment]”, with “binds”.
Next, “CTGAAACTCCAGCGCCGCTCAATGGAGCGACTTTATCAACGATAAGGAGATGGACATATAACTTATCGGTGATAAATTGTCAAGCACTGGCGAAGGAACGTGA (double strand) [103 bp tetR-tetA(G) fragment]”: “binds”; “CTGAAACTCCAGCGCCGCTCAATGGAGCGACTTTATCAACGATAAGGAGATGGACATATAACTTATCGGTGATAAATTGTCAAGCACTGGCGAAGGAACGTGAATGACCAAACTGGACAAGGGCACCGTGATCGCGGCGGCGCTAGAGCTGTTGAACGAGGTTGGCATGGACAGCCTGACGACGCGGAAGCTCGCTGAACGCCTCAAGGTTCAGCA (double strand) [216 bp tetR-tetA(G) fragment]”: “binds”; “GCACAAGCTCACGCAGAAGCGTCGGAAGGACGGGCATGATGAGGCCGAGACCCATGGCGTCAAGACCCACGATCAGCAGGGCAATGATGGCAGAGCTGCGCACCTGAAACTCCAGCGCCGCTCAATGGAGCGACTTTATCAACGATAAGGAGATGGACATATAACTTATCGGTGATAAATTGTCAAGCACTGGCGAAGGAACGTGA (double strand) [206 bp tetR-tetA(G) fragment]”: “binds”.
